From paper PMC4301871 (2015)
Values joined by “and” are separate entries in the source; they are usually repeats but may differ in a detail not shown here. Equal values may be shown once.

Experiments:
Experiment in all cases: ITC
LATS2 = biological target: T1, LATS2 (Homo sapiens)
T1 chain: RRCPPPPYPKHL

LATS1-b = biological target: T2, LATS1-b (Homo sapiens)
T2 chain: YQGPPPPYPKHL

PTCH1-a = biological target: T3, PTCH1-a (Homo sapiens)
T3 chain: RYSPPPPYSSHS

PTCH1-b = biological target: T4, PTCH1-b (Homo sapiens)
T4 chain: EGLWPPPYRPRR

LATS1-a = biological target: T5, LATS1-a (Homo sapiens)
T5 chain: NRQPPPPYPLTA

Row | Binder | Kd (LATS2) [µM] | Kd (LATS1-b) [µM] | Kd (PTCH1-a) | Kd (PTCH1-b) [µM] | Kd (LATS1-a) [µM]
1 | FEIPDDVPLPAGWEMAKTSSGQRYFLNHIDQTTTWQDPRKAMLSQ [YAP-WW1 165-209] | 7.1 | 3.7 | 27.6 µM | 13.2 | 21.5
2 | YAP-WW1-WW2 165-271 (protein) FEIPDDVPLPAGWEMAKTSSGQRYFLNHIDQTTTWQDPRKAMLSQMNVTAPTSPPVQQNMMNSASGPLPDGWEQAMTQDGEIYYINHKNKTTSWLDPRLDPRFAMNQ | 9.2 |  | 47.4 µM and 24.7 µM | 16.9 | 33.4
3 | ASGPLPDGWEQAMTQDGEIYYINHKNKTTSWLDPRLDPRFAMNQ [YAP-WW2 228-271] | 8.2 | 33.9 | 45.8 µM |  | 27
